Measurements taken from patent publication US7101975B1, “Method and composition for inhibition of angiogenesis using antagonists based on MMP-9 and β1 integrins” (University of Southern California, priority 1999, dated 2006).
Entries after “also recorded” stand apart in the source; their conditions may differ. Where no end group is shown, it is not given here.

Assays:
[1] = biological target: MMP-9 (Homo sapiens, UniProt P14780); assay: Solid phase binding assay of synthetic peptides to MMP-9; settings: solid phase binding assays, FIG. 7
Experimental: For example, synthetic peptides were generated and analyzed for binding activity to MMP-9. The binding ability of the peptides was analyzed by solid phase binding assays.

[2] = tested on: angiogenesis on the CAMs of chick embryos; assay: Chick embryo CAM angiogenesis assay (bFGF-induced); type: in vivo; settings: 10 day old chick embryos, single IV injection 100 μg 24 h later, counted three days later, FIG. 8B
Description: For example, one assay measures angiogenesis in the chick chorioallantoic membrane (CAM) and is referred to as the CAM assay. The CAM assay has been described in detail by others, and further has been used to measure both angiogenesis and neovascularization of tumor tissues. See Ausprunk et al., Am. J. Pathol., 79:597-618 (1975) and Ossonski et al., Cancer Res., 40:2300-2309 (1980).
Angiogenesis was induced on the CAMs of 10 day old chick embryos with bFGF. Twenty-four hours later the embryos received a single IV injection with 100 μg of FRIP-1 or AAA control peptide. Three days later angiogenesis was quantified by counting the number of blood vessel branch points within the area of the filter disc. […] FIG. 8B is a quantification of the angiogenesis experiments. […] In FIG. 8B, NT corresponds to No bFGF, FRIP-1 to bFGF+FRIP-1 peptide, and AAA to bFGF+control AAA peptide. Data bars represent the mean±standard errors of 5 to 10 embryos per condition.

Sequence of MMP-9 (P14780 94-707): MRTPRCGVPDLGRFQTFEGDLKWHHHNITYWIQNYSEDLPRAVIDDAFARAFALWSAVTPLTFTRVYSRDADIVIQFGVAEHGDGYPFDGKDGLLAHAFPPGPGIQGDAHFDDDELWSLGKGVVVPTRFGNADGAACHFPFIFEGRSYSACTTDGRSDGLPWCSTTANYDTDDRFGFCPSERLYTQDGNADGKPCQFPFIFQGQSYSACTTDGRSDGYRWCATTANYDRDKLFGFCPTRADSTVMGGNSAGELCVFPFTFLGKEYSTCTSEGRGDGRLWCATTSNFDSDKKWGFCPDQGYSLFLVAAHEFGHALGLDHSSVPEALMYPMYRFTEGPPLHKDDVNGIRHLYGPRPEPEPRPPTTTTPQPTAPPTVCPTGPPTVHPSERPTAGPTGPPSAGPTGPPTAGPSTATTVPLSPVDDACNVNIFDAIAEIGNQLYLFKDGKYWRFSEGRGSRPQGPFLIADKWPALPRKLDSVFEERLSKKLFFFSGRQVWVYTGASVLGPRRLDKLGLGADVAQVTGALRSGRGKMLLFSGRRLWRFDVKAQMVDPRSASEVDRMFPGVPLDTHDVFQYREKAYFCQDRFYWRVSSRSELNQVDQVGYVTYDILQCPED

Sequence | binding to MMP-9 [1] | angiogenesis (number of blood vessel branch points within the area of the filter disc) [2]
CRAAAAEPQC (cysteine pairing not given here) [control peptide, reference compound] | binds with substantially reduced affinity | 
CRAAAGEPQC (cysteine pairing not given here) [control peptide identical to FRIP-1 except that 3 key amino acids were changed, reference compound] | little in any binding ability | 
CRLRSGEPQC (cysteine pairing not given here) [synthetic peptide derived from the C-terminal hemopexin-like domain of human MMP-9] | specifically bind to MMP-9; also recorded: binds to MMP-9 | blocks angiogenesis; also recorded: inhibit angiogenesis
